Here are results for one molecule from patent US20160272694A1 (EDIMER PHARMACEUTICALS, published 2016).

For this assay, the target named is T1, Recombinant human IgG1 Fc (hFc) (human, UniProt P01857-1 100-330 = IgG part).
T1 construct: domain: Fc; Bought reagent; also called Recombinant Human IgG Fc
The experiment in a line: sandwich ELISA: hEDAR-mFc coated, anti-human IgG (Fc) CH2-HRP detection. As to the method:
For validation, ELISA plates (96-well Microtiter Plates, Nunc 96F Maxisorp (Thermo Fisher, Pittsburgh, Pa.)) were coated with 1 μg/mL hEDARmFc coating solution. For the binding step, standards, QCs, Blank (assay buffer alone), and other required samples were added to the appropriate wells of an assay plate. Plates were incubated for approximately 120 minutes and then washed. For the detection step, the detection reagent was added to each required well and the plate was incubated for approximately 60 minutes and then washed. For the substrate step, Ultra TMB (1-Step Ultra TMB-ELISA Substrate (Thermo Scientific, Pittsburgh, Pa.)) was added to each well and the plate was incubated for approximately 20 to 30 minutes. Color development was monitored at 650 nm so that development could be discontinued when the OD of the 250 ng/mL standard was between 1.3 and 1.4. To stop the color reaction, 2N sulfuric acid was added to each well. The OD at 450 nm was determined with the correction wavelength set at 540 nm.
A general note: In an ELISA, binding on a coated surface is turned into a signal by an enzyme label.

B1: hEDAR-mFc (Fc fusion, human, UniProt Q9UNE0 27-183, looked up)
chain: EYSNCGENEYYNQTTGLCQECPPCGPGEEPYLSCGYGTKDEDYGCVPCPAEKFSKGGYQICRRHKDCEGFFRATVLTPGDMENDAECGPCLPGYYMLENRPRNIYGMVCYSCLLAPPNTKECVGATSGASANFPGTSGSSTLSPFQHAHKELSGQGH
notes: Capture reagent from Edimer Pharmaceuticals, coated at 1 µg/mL; also called capture reagent; not shown: mouse Fc (mFc)
Take B1: the binding result is “no binding (tested: 100 ng/mL)”.
